Changes are numbered by the printed parent chain.
B1: R44: mhuTF with arginine substituted in place of D44 (protein, UniProt P13726 33-251, looked up, variant D44R)
extracellular domain: SGTTNTVAAYNLTWKSTNFKTILEWEPKPVNQVYTVQISTKSGRWKSKCFYTTDTECDLTDEIVKDVKQTYLARVFSYPAGNVESTGSAGEPLYENSPEFTPYLETNLGQPTIQSFEQVGTKVNVTVEDERTLVRRNNTFLSLRDVFGKDLIYTLYYWKSSSSGKKTAKTNTNEFLIDVDKGENYCFSVQAVIPSRTVNRKSTDSPVECMGQEKGEFRE
modifications: extracellular domain
notes: mhuTF with arginine substituted in place of D44
B2: Ser-16: human tissue factor mutant with alanine substituted for Ser-16 (protein, UniProt P13726 33-295, looked up, variant S16A)
Tissue factor: SGTTNTVAAYNLTWKATNFKTILEWEPKPVNQVYTVQISTKSGDWKSKCFYTTDTECDLTDEIVKDVKQTYLARVFSYPAGNVESTGSAGEPLYENSPEFTPYLETNLGQPTIQSFEQVGTKVNVTVEDERTLVRRNNTFLSLRDVFGKDLIYTLYYWKSSSSGKKTAKTNTNEFLIDVDKGENYCFSVQAVIPSRTVNRKSTDSPVECMGQEKGEFREIFYIIGAVVFVVIILVIILAISLHKCRKAGVGQSWKENSPLNVS
B3: Phe-147: human tissue factor alanine mutant at Phe-147 (protein, UniProt P13726 33-295, looked up, variant F147A)
Tissue factor: B2 Tissue factor with A16S, F147A
B4: Phe-19: human tissue factor mutant with alanine substituted for Phe-19 (protein, UniProt P13726 33-295, looked up, variant F19A)
Tissue factor: B2 Tissue factor with A16S, F19A
B5: Arg-135: human tissue factor alanine mutant at Arg-135 (protein, UniProt P13726 33-295, looked up, variant R135A)
Tissue factor: B2 Tissue factor with A16S, R135A
B6: Arg-131: human tissue factor alanine mutant at Arg-131 (protein, UniProt P13726 33-295, looked up, variant R131A)
Tissue factor: B2 Tissue factor with A16S, R131A
B7: Arg-136: human tissue factor alanine mutant at Arg-136 (protein, UniProt P13726 33-295, looked up, variant R136A)
Tissue factor: B2 Tissue factor with A16S, R136A
B8: Thr-139/Ser-142: human tissue factor alanine double mutant at Thr-139 and Ser-142 (protein, UniProt P13726 33-295, looked up, variant T139A S142A)
Tissue factor: B2 Tissue factor with A16S, T139A, S142A
B9: Val-146: human tissue factor alanine mutant at Val-146 (protein, UniProt P13726 33-295, looked up, variant V146A)
Tissue factor: B2 Tissue factor with A16S, V146A
B10: Thr-17: human tissue factor mutant with alanine substituted for Thr-17 (protein, UniProt P13726 33-295, looked up, variant T17A)
Tissue factor: B2 Tissue factor with A16S, T17A
B11: Thr-106: human tissue factor mutant with Ala replacement for Thr-106 (protein, UniProt P13726 33-295, looked up, variant T106A)
Tissue factor: B2 Tissue factor with A16S, T106A
B12: Arg-196: human tissue factor alanine mutant at Arg-196 (protein, UniProt P13726 33-295, looked up, variant R196A)
Tissue factor: B2 Tissue factor with A16S, R196A
B13: Asp-145: human tissue factor alanine mutant at Asp-145 (protein, UniProt P13726 33-295, looked up, variant D145A)
Tissue factor: B2 Tissue factor with A16S, D145A
B14: Val-198: human tissue factor alanine mutant at Val-198 (protein, UniProt P13726 33-295, looked up, variant V198A)
Tissue factor: B2 Tissue factor with A16S, V198A
B15: Phe-140: human tissue factor alanine mutant at Phe-140 (protein, UniProt P13726 33-295, looked up, variant F140A)
Tissue factor: B2 Tissue factor with A16S, F140A
B16: Val-67: human tissue factor mutant with alanine substituted for Val-67 (protein, UniProt P13726 33-295, looked up, variant V67A)
Tissue factor: B2 Tissue factor with A16S, V67A
B17: Arg-200/Lys-201: human tissue factor alanine double mutant at Arg-200 and Lys-201 (protein, UniProt P13726 33-295, looked up, variant R200A K201A)
Tissue factor: B2 Tissue factor with A16S, R200A, K201A
B18: S39-T40-S42: human tissue factor triple mutant with alanines at positions 39, 40 and 42 (protein, UniProt P13726 33-295, looked up, variant S39A T40A S42A)
Tissue factor: B2 Tissue factor with A16S, S39A, T40A, S42A
B19: Asp-58 to Ala: human tissue factor mutant with alanine substituted for Asp-58 (protein, UniProt P13726 33-295, looked up, variant D58A)
Tissue factor: B2 Tissue factor with A16S, D58A
B20: S16-T17-K20: human tissue factor triple mutant with alanines at positions 16, 17 and 20 (protein, UniProt P13726 33-295, looked up, variant S16A T17A K20A)
Tissue factor: B2 Tissue factor with T17A, K20A
B21: Asn-199: human tissue factor alanine mutant at Asn-199 (protein, UniProt P13726 33-295, looked up, variant N199A)
Tissue factor: B2 Tissue factor with A16S, N199A
B22: K65-D66-K68: human tissue factor triple alanine mutant at positions 65, 66 and 68 (protein, UniProt P13726 33-295, looked up, variant K65A D66A K68A)
Tissue factor: B2 Tissue factor with A16S, K65A, D66A, K68A
B23: Val-64/Tyr-71 to Ala: human tissue factor double mutant with alanines for Val-64 and Tyr-71 (protein, UniProt P13726 33-295, looked up, variant V64A Y71A)
Tissue factor: B2 Tissue factor with A16S, V64A, Y71A
B24: Ile-22 to Ala: human tissue factor mutant with alanine substituted for Ile-22 (protein, UniProt P13726 33-295, looked up, variant I22A)
Tissue factor: B2 Tissue factor with A16S, I22A
B25: Glu-105: human tissue factor mutant with Ala replacement for Glu-105 (protein, UniProt P13726 33-295, looked up, variant E105A)
Tissue factor: B2 Tissue factor with A16S, E105A
B26: Tyr-71: human tissue factor mutant with alanine substituted for Tyr-71 (protein, UniProt P13726 33-295, looked up, variant Y71A)
Tissue factor: B2 Tissue factor with A16S, Y71A

Tests used:
Factor X = experiment: ability to functionally cleave Factor X (reaction rate Vmax) of D44 mutants; format: biochemical; conditions: D44 substitution study
Experimental: (§1) The lysate was prepared by treating cell pellets with 15 mM octyl-glucopyranoside for 15 minutes at 37C. followed by a 3-fold dilution. […] Formed TF-VIIa complexes were quantified with substrate factor X added at 100 nM for a fixed time. Samples were then removed from the reaction and quenched in 100 mM EDTA in TBS (20 mM Tris-HCl, 140 mM NaCl, pH 7.4). The formation of Xa in the quenched reaction was determined with the chromogenic peptidyl substrate, Spectrozyme FXa (1.2 mM). The rate of Spectrozyme hydrolysis, measured as the increase in absorbance (mOD/min), was determined at ambient temperature in a kinetic plate reader (Molecular Devices, Mountain View, Calif.) followed by quenching and monitoring of product factor Xa formation using the Spectrozyme FXa.
Additional mhuTF mutants were prepared based on amino acid residue substitutions at amino acid residue position number D44.

recalcified plasma = experiment: one stage clotting (coagulation) assay of full-length TF mutants in CHO cell lysates; format: biochemical; conditions: for reduction in specific functional activity (loss of function) relative to wild-type TF: coagulant activity normalized to antigen concentration, full-length mutants expressed in CHO cells; for reduction in tissue factor procoagulant cofactor activity when compared to wt-TF: summary statement in the description
Experimental: The full-length TF mutants prepared above were analyzed for function by coagulation assay. […] Coagulation factor deficient plasmas were purchased from George King Bio-medical. The chromogenic substrate, Spectrozyme FXa, was from American Diagnostica Inc. (Greenwich, Conn.).
An alternative approach was to use a polyvalent antibody purified by affinity for capturing TF followed by detection with the TF8-5G9 monoclonal antibody described above.
Initiation of coagulation by wild-type and mutant TF in recalcified plasma was determined after lysis of cell pellets from 2×10^6 cells/ml for each expressed full-length mutant with 15 mM octyl-glucopyranoside in HBS for 15 minutes at 37C. followed by a 3-fold dilution.
All data represented are based on at least three independent determinations performed in duplicate.

VIIa = experiment: linked chromogenic assay with purified VIIa and factor X (apparent dissociation constant of TF-VIIa); format: binding; conditions: 5 mM Ca2+, Factor X 100 nM
Experimental: as §1
Enzfitter (Elsevier Biosoft) programs were employed to calculate the KDapp from the experimentally determined bound VIIa, and free VIIa which was obtained by subtracting bound VIIa from the initial VIIa concentration.

Molecule | reduction in specific functional activity (loss of function) relative to wild-type TF (recalcified plasma) | also measured
B1 |  | loss of function (specific functional activity, Vmax) compared to wild-type (Factor X): 75%; reaction rate (Vmax) (Factor X; Factor X cleavage): ~0.5 per second
B2 | more than 70% | reduction in tissue factor procoagulant cofactor activity when compared to wt-TF (recalcified plasma): ≥ 75%
B3 | 30-50% | 
B4 | more than 70% | 
B5 | 30-50% | increase in KDapp for the TF-VIIa interaction compared to wild-type TF (ratio KD mutant/KD wild-type) (VIIa): 7.4 fold
B6 | 30-50% | 
B7 | 30-50% | 
B8 | 30-50% | 
B9 | 30-50% | 
B10 | more than 70% | reduction in tissue factor procoagulant cofactor activity when compared to wt-TF (recalcified plasma): ≥ 75%
B11 | more than 50% | 
B12 |  | increase in KDapp for the TF-VIIa interaction compared to wild-type TF (ratio KD mutant/KD wild-type) (VIIa): 3.5 fold
B13 | 30-50% | 
B14 | 30-80% | 
B15 | 30-50% | increase in KDapp for the TF-VIIa interaction compared to wild-type TF (ratio KD mutant/KD wild-type) (VIIa): 18 fold
B16 | 53% | 
B17 | 30-80% | 
B18 | 43% | 
B19 |  | increase in KDapp for the TF-VIIa interaction compared to wild-type TF (ratio KD mutant/KD wild-type) (VIIa): 41 fold
B20 | 98% | 
B21 | 30-80% | reduction in tissue factor procoagulant cofactor activity when compared to wt-TF (recalcified plasma): ≥ 75%
B22 | 70% | 
B23 |  | increase in KDapp for the TF-VIIa interaction compared to wild-type TF (ratio KD mutant/KD wild-type) (VIIa): 2.1 fold
B24 | 35% | increase in KDapp for the TF-VIIa interaction compared to wild-type TF (ratio KD mutant/KD wild-type) (VIIa): 11 fold
B25 | more than 50% | 
B26 | 98% | 
